# Experimental data published in patent US20220236279A1 (published 2022).
# No end group written: not given here.
# Target: human atypical chemokine receptor 3 (ACKR3) (human, UniProt P25106 1-362)
# Test: binding competition with CXCL12-AF647, flow cytometry
# human atypical chemokine receptor 3 (ACKR3), sequence (P25106 whole entry): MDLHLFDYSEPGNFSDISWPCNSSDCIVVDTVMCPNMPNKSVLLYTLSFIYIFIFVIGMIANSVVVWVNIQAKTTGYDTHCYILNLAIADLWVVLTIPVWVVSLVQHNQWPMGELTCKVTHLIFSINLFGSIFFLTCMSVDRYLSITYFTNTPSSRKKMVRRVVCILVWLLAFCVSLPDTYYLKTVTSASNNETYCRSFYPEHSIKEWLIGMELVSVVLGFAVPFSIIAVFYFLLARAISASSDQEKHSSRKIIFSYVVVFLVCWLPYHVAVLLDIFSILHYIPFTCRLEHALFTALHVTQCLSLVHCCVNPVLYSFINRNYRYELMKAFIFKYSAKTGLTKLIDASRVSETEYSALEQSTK
row,Binder,IC50 [µM]
1,"H-FGGFMRRK-NH2 [LIH383, octapeptide FGGFMRRK (SEQ ID NO: 3; NH2-substituted at C-terminus)]",0.004
2,YGGFLRRIRPKLKWDNQ [dynorphin A],0.0827
3,GGFLRRIRPKLK-NH2 [dynorphin 2-13 (SEQ ID NO: 20; NH2-substituted at C-terminus)],20.9
4,FGGFTGARKSARK-NH2 (also: reduced peptide bond ψ(CH2-NH) between Phe1 and Gly2) [Phe1ψ(CH2-NH)-Gly2-Nociceptin-1-13 amide (SEQ ID NO: 13; NH2-substituted at C-terminus)],> 10
5,GGFLRRIRPKLKWDNQ [dynorphin 2-17 (SEQ ID NO: 19)],11.1
6,"YGGFMRRV-NH2 [adrenorphin, YGGFMRRV (SEQ ID NO: 32; NH2-substituted at C-terminus)]",0.049
7,YGGFLRRQFKVVT [dynorphin B],0.465
8,YGGFMRRVGRPEWWMDYQKRYG [BAM22],0.0327
